Experimental data published in patent US20230392126A1, “TISSUE ORGANOIDS” (priority 2016, published 2023).

Columns and labels:
[1] = Cocaine hydrolysis activity in vitro (clearance assay with conditioned medium)
[2] = mGLP1 expression in blood/plasma of grafted mice fed dox food; assay type: in vivo, mouse
Experimental: The epidermal progenitor cells were isolated from newborn pups of CD1 or C57BL/6J mice. […] Targeted clones were selected in the medium containing puromycin, and correct incorporation into the Rosa26 locus was confirmed by PCR and southern blots (FIG. 25B). Mouse skin substitute was prepared by seeding the targeted cells to the acellularized newborn dermis and differentiation upon exposure to the air/liquid interphase and the resultant tissues were transplanted to CD1 or C57BL/6J mice (GLP1).
Expression of mGLP1 in GLP1 mice was stable for up to 4 months in the presence of dox (FIG. 25D).
There was a dose-dependent release of GLP1 in plasma (not shown). Expression of mGLP1 in mGLP1 mice was stable for up to 4 months in the presence of dox (FIG. 25D).

[3] = Nicotine-induced CPP in GLP1 and GWT mice; assay type: in vivo, mouse; details: 0.4 mg/kg nicotine i.p., dox food, vs GWT
Experimental: FIG. 29 mGLP1 expression on nicotine-induced CPP. […] Following 2 free explorations (Pre-test) on day 1, separate groups of GLP1 and GWT mice (n=7 each) received alternative nicotine (0.4 mg/kg) and saline i.p. injections twice daily for the next 4 days, as previously described (Chen et al., 2010; Kong et al., 2011). CPP expression was tested on day 6. Results represent mean±SEM time spent on the drug-paired side minus the saline-paired side. Repeated-measures ANOVA with test days as the within group factor and status of grafting as the between-subject factor were used (Chen et al., 2010; Kong et al., 2011). F value was calculated and Newman-Keuls post-hoc test was performed (Chen et al., 2010; Kong et al., 2011). GLP1 and WT mice were on dox food for the entire duration.
(§1) Following 2 free explorations (Pre-test) on day 1, separate groups of mGLP1 and GWT (n=7 each) received alternative nicotine (0.4 mg/kg) and saline i.p. injections twice daily for the next 4 days, as previously described (Chen et al., Dopamine D1 and D3 receptors are differentially involved in cue-elicited cocaine seeking. J. Neurochem. 114, 530-541 (2010); Kong et al., Activation of dopamine D3 receptors inhibits reward-related learning induced by cocaine. Neurosci. 176, 152-161 (2011)). […] F value was calculated and Newman-Keuls post-hoc test was performed (Chen et al., 2010; Kong et al., 2011). […]

[4] = Ethanol-induced CPP in GLP1 and GWT mice; assay type: in vivo, mouse; details: 2 g/kg ethanol i.p., dox food, vs mock grafted (GWT)
Source text: as §1, with “FIG. 26. mGLP1 expression on ethanol-induced CPP. […] Following” for “Following”, “GLP1” for “mGLP1”, “mice (n=9” for “(n=7”, “ethanol (2 g/kg)” for “nicotine (0.4 mg/kg)”, “(2011)). CPP expression was tested on day 6. Results represent mean±SEM time spent on the drug-paired side minus the saline-paired side.” for “(2011)).”
as §1, with “GLP1” for “mGLP1”, “mice (n=9” for “(n=7”, “ethanol (2 g/kg)” for “nicotine (0.4 mg/kg)”

[5] = system: epidermal progenitor cells; assay: Suicide gene-induced cell death in epidermal progenitor cells upon prodrug treatment; assay type: cell-based; details: ganciclovir and 5-fluorocytosine, respectively; data not shown
Source text: To test this possibility, a Rosa26 targeting vector encoding phenylalanine ammonia lyase (PAL) (SEQ ID NO: 51) together with inducible “suicide” genes HSV-TK (Herpes Simplex Virus Thymidine Kinase) (SEQ ID NO: 52) and yCD (yeast cytosine deaminase) (SEQ ID NO: 53) was used for epidermal progenitor cell transfection.

B1: mBChE: mouse BChE with similar point mutations (SEQ ID NO: 43) (protein)
chain: MQTQHTKVTQTHFLLWILLLCMPFGKSHTEEDFIITTKTGRVRGLSMPVLGGTVTAFLGIPYAQPPLGSLRFKKPQPLNKWPDIHNATQYANSCYQNIDQAFPGFQGSEMWNPNTNLSEDCLYLNVWIPVPKPKNATVMVWIYGGGFQTGTSSLPVYDGKFLARVERVIVVSMNYRVGALGFLAFPGNPDAPGNMGLFDQQLALQWVQRNIAAFGGNPKSITIFGESSGAASVSLHLLCPQSYPLFTRAILESGSANAPWAVKHPEEARNRTLTLAKFTGCSKENEMEMIKCLRSKDPQEILRNERFVLPSDSALGINFGPTVDGDFLTDMPHTLLQLGKVKKAQILVGVNKDEGTWFLVGGAPGFSKDNDSLITRKEFQEGLNMYFPGVSRLGKEAVLFYYVDWLGEQSPEVYRDALDDVIGDYNIICPALEFTKKFAELENNAFFYFFEHRSSKLPWPEWMGVMHGYEIEFVFGLPLGRRVNYTRAEEIFSRSIMKTWANFAKYGHPNGTQGNSTMWPVFTSTEQKYLTLNTEKSKIYSKLRAPQCQFWRLFFPKVLEMTGDIDETEQEWKAGFHRWSNYMMDWQNQFNDYTSKKESCTAL
modifications: Mouse mutant BChE
[1]
  cocaine hydrolysis activity of conditioned medium: only residual activity in cocaine hydrolysis

B2: mGLP1: Gly8-mutant mGLP1 and mouse IgG-Fc fragment fusion protein (SEQ ID NO: 45), dox-dependent promoter, from skin grafts (protein)
chain: MYRMQLLSCIALSLALVTNSHGEGTFTSDVSSYLEGQAAKEFIAWLVKGRGRSGCKPCICTVPEVSSVFIFPPKPKDVLTITLTPKVTCVVVDISKDDPEVQFSWFVDDVEVHTAQTQPREEQFNSTFRSVSELPIMHQDWLNGKEFKCRVNSAAFPAPIEKTISKTKGRPKAPQVYTIPPPKEQMAKDKVSLTCMITDFFPEDITVEWQWNGQPAENYKNTQPIMDTDGSYFVYSKLNVQKSNWEAGNTFTCSVLHEGLHNHHTEKSLSHSPGK
modifications: mGLP-1 (GLY8 mutant with IgG-Fc fusion)
[2]; dox food
  time to significantly enhanced levels of mGLP1 in the blood: ≤ 3 days
[2]; in the presence of dox
  duration of stable mGLP1 expression: up to 4 months
[2]; not shown
  release of mGLP1 in plasma vs dox dose: dose-dependent release of mGLP1 in plasma
[3]
  nicotine-induced CPP: attenuated nicotine-induced CPP
[4]
  ethanol-induced CPP: attenuated ethanol-induced CPP

B3: yCD: inducible suicide gene, yeast cytosine deaminase (SEQ ID NO: 53), prodrug 5-fluorocytosine (protein)
chain: MVTGGMASKWDQKGMDIAYEEAALGYKEGGVPIGGCLINNKDGSVLGRGHNMRFQKGSATLHGEISTLENCGRLEGKVYKDTTLYTTLSPCDMCTGAIIMYGIPRCVVGENVNFKSKGEKYLQTRGHEVVVVDDERCKKIMKQFIDERPQDWFEDIGE
modifications: misc_feature 1..474 yCD
[5]
  cell death upon prodrug treatment: efficiently induced cell death upon treatment with prodrugs
